Reference: patent US20030077706A1

Biological target: CRF2-4/zcytor11 heterodimeric receptor (on BaF3/CRF2-4/zcytor11 cells) (human) (UniProt Q08334)
Assay: cell-based or functional assay

Sequence of CRF2-4/zcytor11 heterodimeric receptor (on BaF3/CRF2-4/zcytor11 cells) (human) (Q08334 20-325 limits assumed, chain 1 of 2): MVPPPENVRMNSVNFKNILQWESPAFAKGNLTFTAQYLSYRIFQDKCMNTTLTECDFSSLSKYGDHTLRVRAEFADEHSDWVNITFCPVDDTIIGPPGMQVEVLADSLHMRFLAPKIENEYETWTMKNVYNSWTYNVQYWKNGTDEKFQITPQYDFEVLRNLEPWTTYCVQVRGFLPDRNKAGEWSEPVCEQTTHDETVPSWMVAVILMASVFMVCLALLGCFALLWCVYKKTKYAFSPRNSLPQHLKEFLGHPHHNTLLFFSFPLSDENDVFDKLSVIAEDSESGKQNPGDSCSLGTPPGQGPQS
Sequence of CRF2-4/zcytor11 heterodimeric receptor (on BaF3/CRF2-4/zcytor11 cells) (human) (chain, as listed by the source limits assumed, chain 2 of 2): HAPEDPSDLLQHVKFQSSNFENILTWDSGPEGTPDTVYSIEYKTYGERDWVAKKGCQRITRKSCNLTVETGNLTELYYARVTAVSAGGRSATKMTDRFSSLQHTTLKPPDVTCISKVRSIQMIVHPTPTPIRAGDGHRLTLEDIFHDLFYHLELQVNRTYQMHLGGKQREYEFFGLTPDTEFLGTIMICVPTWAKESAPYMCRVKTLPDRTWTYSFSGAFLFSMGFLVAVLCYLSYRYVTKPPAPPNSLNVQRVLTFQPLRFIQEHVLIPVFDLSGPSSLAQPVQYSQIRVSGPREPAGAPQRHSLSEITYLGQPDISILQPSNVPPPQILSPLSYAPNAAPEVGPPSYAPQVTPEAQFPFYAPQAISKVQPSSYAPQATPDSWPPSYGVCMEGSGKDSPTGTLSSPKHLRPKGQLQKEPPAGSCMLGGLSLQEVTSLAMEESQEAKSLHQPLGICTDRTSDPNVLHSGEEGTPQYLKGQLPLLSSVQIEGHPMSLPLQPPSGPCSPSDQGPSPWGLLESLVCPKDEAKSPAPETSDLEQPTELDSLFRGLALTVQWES

- proliferation of BaF3/CRF2-4/zcytor11 cells (Alamar Blue), IL-TIF-CEE at 0.06 ng/ml (fold induction): 2
- proliferation of BaF3/CRF2-4/zcytor11 cells (Alamar Blue), IL-TIF-CEE at 50 ng/ml (fold over background): 15
Substance: purified human IL-TIF-CEE (IL-TIF with C-terminal Glu-Glu tag) (from UniProt Q9GZX6 34-179) (ligand)
